Experimental data from the supplement of paper PMC9170038.

Test system: K4 kissing-loop RNA reporter
Assay: apparent KD of K4 kissing-loop reporter; higher = weaker reporter binding
Conditions: Eterna round: R107
Protocol: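 RNA-MaP round R107: designed RNA switches with theophylline, tryptophan, arginine or FMN aptamers are transcribed on-chip within common flanks. They are titrated with a labelled K4 kissing-loop RNA reporter in RNA-MaP buffer (100 mM Tris pH 7.5, 80 mM KCl, 4 mM MgCl2), without ligand or with the indicated ligand. Median apparent KD per design.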

[1] = input ligand: theophylline 20 uM
[2] = input ligand: tryptophan 2.4 mM
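Also: bound reporter read as fluorescence of individual clusters on recovered sequencing chips by microscopy, with normalized cluster intensities fitted with a binding model.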

| Sequence | apparent KD of K4 kissing-loop reporter (input ligand: FMN 200 uM) | apparent KD of K4 kissing-loop reporter (input ligand: arginine 13.2 mM) | apparent KD of K4 kissing-loop reporter (input ligand: none) | apparent KD of K4 kissing-loop reporter [1] | apparent KD of K4 kissing-loop reporter [2] |
| --- | --- | --- | --- | --- | --- |
| GAUUGAGUGAUGUUCAAUUAGUAUCUAGAUACCAGAAUGUCUACCUUCCCUUGGCAGCUACUGACGGUGAUCAUUUCGCGCGCAG [theeternabot_sameState_KL_Theo_A_19] | 235 nM | 222 nM | 244 nM | 253 nM | 195 nM |
| GCAAAGUGUCAUAUUAUCUAGCAGCUGCGAAAGGAUAUGAGAGUGCUCAGAAGGUUCUUGGCGGAGUGAUGUUCCGCGUAAAUGG [theeternabot_exclusion_KL_FMN_A_22] | 84.2 nM | 93.8 nM | 93.9 nM | 103 nM | 81.4 nM |
| GCAGACCGCAGUGAUGUUGCGAAAUCGGAAGGAGCGCGUGAAAACGCAGGUAGGUCGCCGACACAGGGAUUAUAACCCUGUUUGC [Arginine A K4 16] | 173 nM | 196 nM | 207 nM | 176 nM | 154 nM |
| GCAGCUCGGGAGUGAUGUUCUCGUAGAGGAAAGGAUAUGUACUUAGACAGAAGGUUCGCAAUUUGCGGUCUUAAGAUAGAAUAAC [theeternabot_sameState_KL_FMN_A_40] | 177 nM | 126 nM | 207 nM | 224 nM | 152 nM |
| GCAGGAUGAGGAGGAGGAUGAAUUACUGAAGGAGCGCAUAUUUUUGCAGGUAGGUCGCGGUAAAGAAGUAUAGUGAUGUUAUAUA [SSArgA.K] | 333 nM | 255 nM | 267 nM | 568 nM | 456 nM |
| GCAGUGAUGUUGCGGAUGUACAGUGGCGUGCGAGGACCGGUACGGCCGCCACUCGUACAGACCAAGCUAAUACAUCGAUAGGUGA [whbob_SS_Tryp_A_m3] | 344 nM | 247 nM | 353 nM | 287 nM | 218 nM |
| GCAGUGAUGUUGCUGAUGUGCAGUGGUAGUCGAGGACCGGUACGGCCGCCACUCGGUGAGAAUUUGUUAAUACAUCGAUAAGUGA [XVI] | 968 nM | 558 nM | 788 nM | 509 nM | 707 nM |
| GCAUCCUAGUCGGCCGCCACUAACAUGAGUGAUGUUCAUGUACGUCAGUGAUGUUGACGUAGUUAUAGGACCGGGACUAGGAUGC [KL-SSTryp-B7 Brourdwalk3] | 146 nM | 119 nM | 137 nM | 118 nM | 120 nM |
| GCCAGAGCGCGAAGGAGCGCCGUGACAGGUUGCUGCCGUGGGCAGUGAUGUUGCUCAAUCUGGCAGGUAGGUCGCGUGCUCUGGC | 269 nM | 219 nM | 273 nM | 226 nM | 248 nM |
| GCCCUCUUAACGGCCGCCACUAUAUUUAUGAUCUCUAGUAAGUGAUGUUUACUCCGGCUUAUAGGUAGGACCGGGUUAUUAUCUU [theeternabot_sameState_KL_Trp_B_39] | 229 nM | 336 nM | 257 nM | 302 nM | 181 nM |
| GCCGUACGCAUGGAUACCAGCACAGGCCGAAGUGAUGUUUCGUGCGUAUAUUUGUGCUACUGCCCUUGGCAGCCAUGCGUACGGC | 75.8 nM | 66.9 nM | 73.9 nM | 66.5 nM | 75.2 nM |
